Substitutions are numbered along the chain they refer to. In names and notes the source's numbering stands.
B1: phospho-mimetic tbWag31-T73E (DivIVA/Wag31 from M. tuberculosis, Rv2145c) (natural protein)
chain: MPLTPADVHNVAFSKPPIGKRGYNEDEVDAFLDLVENELTRLIEENSDLRQRINELDQELAAGGGAGVTPQAEQAIPAYEPEPGKPAPAAVSAGMNEEQALKAARVLSLAQDTADRLTNTAKAESDKMLADARANAEQILGEARHTADATVAEARQRADAMLADAQSRSEAQLRQAQEKADALQADAERKHSEIMGTINQQRAVLEGRLEQLRTFEREYRTRLKTYLESQLEELGQRGSAAPVDSNADAGGFDQFNRGKN
B2: phospho-ablative tbWag31-T73A (DivIVA/Wag31 from M. tuberculosis, Rv2145c) (natural protein)
chain: B1 chain with E73A

Biological target: the molecule itself
Test: small angle X-ray scattering

Protein | binding result
B1 | binds
B2 | binds
